Here are results for 3 molecules from patent US20100016408A1 (NEW YORK UNIVERSITY, published 2010).

The target of one experiment is T1, FLAG-tagged Claspin(ENL) (human, UniProt Q9HAW4 1-1339, limits assumed).
T1 construct: also called mutant #3; not shown: FLAG tag
Put plainly: co-immunoprecipitation with anti-HA antibody from HEK293T cells, immunoblot (FIG. 3F). The method, then:
(§1) HEK293T cells were cotransfected with HA-tagged Cdh1 and the indicated FLAG-tagged Claspin mutants. Whole cell extracts (WCE, bottom two panels, FIG. 3B) were immunoprecipitated (IP, upper two panels FIG. 3B) with an anti-HA antibody, and the indicated proteins were detected by immunoblotting. Finally, five unique, triple-point-mutations to Alanine across Claspin amino acids 79-102 were inserted, following the pattern of evolutionary conserved residues (FIG. 3E), and these mutants were assayed for binding to Cdh1. […] Thus, these studies identified the motif “EENxENL” (SEQ ID NO:29) located at residues 86-92 of Claspin (SEQ ID NO: 9), as the site mediating binding to Cdh1. Accordingly, in contrast to wild type Claspin, Claspin(ENL) was stable in HeLa cells progressing through G1 (FIG. 2C).
On the technique in general: Immunoblotting shows a protein as a band on a membrane.

Another experiment has as its target T2, FLAG-tagged Claspin(EEN) (human, UniProt Q9HAW4 1-1339, limits assumed).
T2 construct: also called mutant #2; not shown: FLAG tag
The experiment is described as above. The protocol: as §1

A further experiment deals with T3, Claspin (human, UniProt Q9HAW4 1-1339).
T3 construct: also called endogenous Claspin; wild type Claspin
Put plainly: co-immunoprecipitation with anti-FLAG resin from HEK293T cells, immunoblot for endogenous Claspin (FIG. 2A). The protocol: To test whether APC/C^Cdh1 has a role in the degradation of Claspin during G0/G1, the expression of Cdh1 was reduced in T98G cells using a validated […] (SEQ ID NO:21). T98G cells were serum starved following knockdown of Cdh1, and the expression levels of Claspin were analyzed at various time points thereafter. FIGS. 2A-D are immunoblots showing Claspin is degraded in G0 and G1 via the APC/C^Cdh1 ubiquitin ligase. […] HEK293T cells were transfected with the indicated FLAG-tagged constructs or an empty vector (EV). Whole cell extracts (WCE) were immunoprecipitated (IP) with anti-FLAG resin, and immunocomplexes were probed with antibodies to the indicated proteins.

T3 sequence (Q9HAW4 whole entry): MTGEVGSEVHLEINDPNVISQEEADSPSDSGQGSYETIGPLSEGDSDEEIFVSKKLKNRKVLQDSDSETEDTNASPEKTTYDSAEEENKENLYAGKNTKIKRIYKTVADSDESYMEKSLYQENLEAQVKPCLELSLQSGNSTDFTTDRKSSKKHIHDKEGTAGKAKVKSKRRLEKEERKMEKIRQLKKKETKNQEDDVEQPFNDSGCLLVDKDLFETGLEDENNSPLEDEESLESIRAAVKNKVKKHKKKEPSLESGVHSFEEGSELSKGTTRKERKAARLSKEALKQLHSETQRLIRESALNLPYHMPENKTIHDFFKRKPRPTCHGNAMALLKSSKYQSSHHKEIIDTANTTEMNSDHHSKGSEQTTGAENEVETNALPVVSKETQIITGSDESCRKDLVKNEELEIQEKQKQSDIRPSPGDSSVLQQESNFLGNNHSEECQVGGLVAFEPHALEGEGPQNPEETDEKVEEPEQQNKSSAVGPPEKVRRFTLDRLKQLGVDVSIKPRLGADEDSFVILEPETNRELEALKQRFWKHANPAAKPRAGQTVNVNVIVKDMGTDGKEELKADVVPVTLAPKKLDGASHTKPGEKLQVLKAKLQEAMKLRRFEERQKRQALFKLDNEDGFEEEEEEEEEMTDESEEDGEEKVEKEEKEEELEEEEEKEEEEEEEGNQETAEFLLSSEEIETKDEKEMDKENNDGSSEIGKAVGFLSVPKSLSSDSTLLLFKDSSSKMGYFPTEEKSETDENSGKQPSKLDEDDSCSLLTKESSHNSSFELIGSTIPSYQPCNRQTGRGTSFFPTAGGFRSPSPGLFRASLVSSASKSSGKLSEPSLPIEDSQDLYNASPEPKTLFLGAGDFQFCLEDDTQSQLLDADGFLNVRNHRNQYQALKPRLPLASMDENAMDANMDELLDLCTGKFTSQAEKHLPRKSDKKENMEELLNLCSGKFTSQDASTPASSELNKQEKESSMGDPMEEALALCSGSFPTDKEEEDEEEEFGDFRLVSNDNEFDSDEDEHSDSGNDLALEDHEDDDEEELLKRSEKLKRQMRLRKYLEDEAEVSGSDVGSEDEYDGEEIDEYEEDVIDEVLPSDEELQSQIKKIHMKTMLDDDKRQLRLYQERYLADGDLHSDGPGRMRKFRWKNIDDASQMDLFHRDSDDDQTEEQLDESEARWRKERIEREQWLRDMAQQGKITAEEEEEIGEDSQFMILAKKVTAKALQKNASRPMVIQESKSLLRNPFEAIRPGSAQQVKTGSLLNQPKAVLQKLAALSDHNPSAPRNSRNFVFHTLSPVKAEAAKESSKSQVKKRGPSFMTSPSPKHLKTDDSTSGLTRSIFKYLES
T1 sequence (Q9HAW4 other isoform, or with tags, fused parts or gaps limits assumed): as the sequence (Q9HAW4 whole entry) above, with E90A, N91A, L92A counted along it
T2 sequence (Q9HAW4 other isoform, or with tags, fused parts or gaps limits assumed): as the sequence (Q9HAW4 whole entry) above, with E86A, E87A, N88A counted along it

B1: HA-tagged Cdh1 (other)
chain: MDQDYERRLLRQIVIQNENTMPRVTEMRRTLTPASSPVSSPSKHGDRFIPSRAGANWSVNFHRINENEKSPSQNRKAKDATSDNGKDGLAYSALLKNELLGAGIEKVQDPQTEDRRLQPSTPEKKGLFTYSLSTKRSSPDDGNDVSPYSLSPVSNKSQKLLRSPRKPTRKISKIPFKVLDAPELQDDFYLNLVDWSSLNVLSVGLGTCVYLWSACTSQVTRLCDLSVEGDSVTSVGWSERGNLVAVGTHKGFVQIWDAAAGKKLSMLEGHTARVGALAWNAEQLSSGSRDRMILQRDIRTPPLQSERRLQGHRQEVCGLKWSTDHQLLASGGNDNKLLVWNHSSLSPVQQYTEHLAAVKAIAWSPHQHGLLASGGGTADRCIRFWNTLTGQPLQCIDTGSQVCNLAWSKHANELVSTHGYSQNQILVWKYPSLTQVAKLTGHSYRVLYLAMSPDGEAIVTGAGDETLRFWNVFSKTRSTKESVSVLNLFTRIR
notes: not shown: HA tag
Consider B1, for which the binding result in the experiment with FLAG-tagged Claspin(ENL) and with FLAG-tagged Claspin(EEN) was “no binding” each time.

B2: FLAG-tagged Fbxw4 (other, UniProt P57775 1-412, looked up)
chain: MAAAAGEEEEEEEAARESAARPAAGPALWRLPEELLLLICSYLDMRALGRLAQVCRWLRRFTSCDLLWRRIARASLNSGFTRLGTDLMTSVPVKERVKVSQNWRLGRCREGILLKWRCSQMPWMQLEDDSLYISQANFILAYQFRPDGASLNRRPLGVFAGHDEDVCHFVLANSHIVSAGGDGKIGIHKIHSTFTVKYSAHEQEVNCVDCKGGIIVSGSRDRTAKVWPLASGRLGQCLHTIQTEDRVWSIAISPLLSSFVTGTACCGHFSPLRIWDLNSGQLMTHLGSDFPPGAGVLDVMYESPFTLLSCGYDTYVRYWDLRTSVRKCVMEWEEPHDSTLYCLQTDGNHLLATGSSYYGVVRLWDRRQRACLHAFPLTSTPLSSPVYCLRLTTKHLYAALSYNLHVLDFQNP
notes: not shown: FLAG tag
As to B2, in the experiment with Claspin, the binding result is “no binding”.

B3: FLAG-tagged Fbxw5 (other, UniProt Q969U6 1-566, looked up)
chain: MDEGGTPLLPDSLVYQIFLSLGPADVLAAGLVCRQWQAVSRDEFLWREQFYRYYQVARDVPRHPAAMSWYEEFQRLYDTVPCVEVQTLREHTDQVLHLSFSHSGYQFASCSKDCTVKIWSNDLTISLLHSADMRPYNWSYTQFSQFNKDDSLLLASGVFLGPHNSSSGEIAVISLDSFALLSRVRNKPYDVFGCWLTETSLISGNLHRIGDITSCSVLWLNNAFQDVESENVNVVKRLFKIQNLNASTVRTVMVADCSRFDSPDLLLEAGDPATSPCRIFDLGSDNEEVVAGPAPAHAKEGLRHFLDRVLEGRAQPQLSERMLETKVAELLAQGHTKPPERSATGAKSKYLIFTTGCLTYSPHQIGIKQILPHQMTTAGPVLGEGRGSDAFFDALDHVIDIHGHIIGMGLSPDNRYLYVNSRAWPNGAVVADPMQPPPIAEEIDLLVFDLKTMREVRRALRAHRAYTPNDECFFIFLDVSRDFVASGAEDRHGYIWDRHYNICLARLRHEDVVNSVVFSPQEQELLLTASDDATIKAWRSPRTMRVLQAPRPRPRTFFSWLASQRR
notes: not shown: FLAG tag
For the molecule B3, the binding result with Claspin is given as “no binding”.
